{"source": "IntAct's records for PubMed 9343432", "parents": {"B1": {"name": "Polycomb protein Scm (Drosophila melanogaster (Fruit fly)), Q9VHA0 (parent)", "chain": "MSGGRDSSTSSGSNSAAPGASTNATSSASASASSTSTSASPGSTTSPASTQRQRGRPAKRATCTWCGEGKLPLQYVLPTQTGKKEFCSETCIAEFRKAYSKGACTQCDNVIRDGAPNKEFCSIMCMNKHQKKNCSTRHSGGSASGKGLAESERKLLASGAPAPTGPFQYESFHVFDWDAYLEETGSEAAPAKCFKQAQNPPNNDFKIGMKLEALDPRNVTSTCIATVVGVLGSRLRLRLDGSDSQNDFWRLVDSTEIHAIGHCEKNGGMLQPPLGFRMNASSWPGYLCKILNNAMVAPEEIFQPEPPEPEENLFKVGQKLEAVDKKNPQLICCATVDAIKDDQIHVTFDGWRGAFDYWCNYRSRDIFPAGWCARSCHPMQPPGHKSRMDSSSSKQRCPRPRYTVVAESEAMVPASPATAHFHPNCKGGPFINNSKLPCMVTGPTYQTLAKLCLQEVLAASTDTQQLSKLLFALEGDVHIVTAAGKNFTVKIPSPMRMKDDESLAQFIETLCTTCRACANLISLVHETEECKKCANSRKRQLTQSATPPSSPVLADKRNRQSNSATTSPSEKIIKQELAVKSPVESKSKTSTNNGKEPASQQNSNHSLNNNNNSASKSSNKVVIKSEPNGANAQTSSTTQALRKVRFQHHANTNTNSSATNGNQDTSQTTHVSTSHCSSSSTSSSTSLAGGSANTSTIGKYLAPLVAEVHPEQANVKPSNSYYKSPTTLSSSASLPTSVSTPFTGCQSASSTALAAGGVTAAKAATAPAGAAATAGASPSYTAITSPVSTPTSALANSHLRSQPIDWTIEEVIQYIESNDNSLAVHGDLFRKHEIDGKALLLLNSEMMMKYMGLKLGPALKICNLVNKVNGRRNNLAL"}, "B2": {"name": "Polyhomeotic-proximal chromatin protein (Drosophila melanogaster (Fruit fly)), P39769 (parent)", "chain": "MDRRALKFMQKRADTESDTTTPVSTTASQGISASAILAGGTLPLKDNSNIREKPLHHNYNHNNNNSSQHSHSHQQQQQQQVGGKQLERPLKCLETLAQKAGITFDEKYDVASPPHPGIAQQQATSGTGPATGSGSVTPTSHRHGTPPTGRRQTHTPSTPNRPSAPSTPNTNCNSIARHTSLTLEKAQNPGQQVAATTTVPLQISPEQLQQFYASNPYAIQVKQEFPTHTTSGSGTELKHATNIMEVQQQLQLQQQLSEANGGGAASAGAGGAASPANSQQSQQQQHSTAISTMSPMQLAAATGGVGGDWTQGRTVQLMQPSTSFLYPQMIVSGNLLHPGGLGQQPIQVITAGKPFQGNGPQMLTTTTQNAKQMIGGQAGFAGGNYATCIPTNHNQSPQTVLFSPMNVISPQQQQNLLQSMAAAAQQQQLTQQQQQFNQQQQQQLTQQQQQLTAALAKVGVDAQGKLAQKVVQKVTTTSSAVQAATGPGSTGSTQTQQVQQVQQQQQQTTQTTQQCVQVSQSTLPVGVGGQSVQTAQLLNAGQAQQMQIPWFLQNAAGLQPFGPNQIILRNQPDGTQGMFIQQQPATQTLQTQQNQIIQCNVTQTPTKARTQLDALAPKQQQQQQQVGTTNQTQQQQLAVATAQLQQQQQQLTAAALQRPGAPVMPHNGTQVRPASSVSTQTAQNQSLLKAKMRNKQQPVRPALATLKTEIGQVAGQNKVVGHLTTVQQQQQATNLQQVVNAAGNKMVVMSTTGTPITLQNGQTLHAATAAGVDKQQQQLQLFQKQQILQQQQMLQQQIAAIQMQQQQAAVQAQQQQQQQVSQQQQVNAQQQQAVAQQQQAVAQAQQQQREQQQQVAQAQAQHQQALANATQQILQVAPNQFITSHQQQQQQQLHNQLIQQQLQQQAQAQVQAQVQAQAQQQQQQREQQQNIIQQIVVQQSGATSQQTSQQQQHHQSGQLQLSSVPFSVSSSTTPAGIATSSALQAALSASGAIFQTAKPGTCSSSSPTSSVVTITNQSSTPLVTSSTVASIQQAQTQSAQVHQHQQLISATIAGGTQQQPQGPPSLTPTTNPILAMTSMMNATVGHLSTAPPVTVSVTSTAVTSSPGQLVLLSTASSGGGGSIPATPTKETPSKGPTATLVPIGSPKTPVSGKDTCTTPKSSTPATVSASVEASSSTGEALSNGDASDRSSTPSKGATTPTSKQSNAAVQPPSSTTPNSVSGKEEPKLATCGSLTSATSTSTTTTITNGIGVARTTASTAVSTASTTTTSSGTFITSCTSTTTTTTSSISNGSKDLPKAMIKPNVLTHVIDGFIIQEANEPFPVTRQRYADKDVSDEPPKKKATMQEDIKLSGIASAPGSDMVACEQCGKMEHKAKLKRKRYCSPGCSRQAKNGIGGVGSGETNGLGTGGIVGVDAMALVDRLDEAMAEEKMQTEATPKLSESFPILGASTEVPPMSLPVQAAISAPSPLAMPLGSPLSVALPTLAPLSVVTSGAAPKSSEVNGTDRPPISSWSVDDVSNFIRELPGCQDYVDDFIQQEIDGQALLLLKEKHLVNAMGMKLGPALKIVAKVESIKEVPPPGEAKDPGAQ"}}, "data": [{"variants_of": "B1", "conditions": "with php_drome ph-p, P39769", "values": [{"variant": "G836S", "effect of a mutation on the interaction": "decreasing interaction"}]}, {"variants_of": "B2", "conditions": "with scm_drome Scm, Q9VHA0", "values": [{"variant": "W1513A", "effect of a mutation on the interaction": "decreasing interaction"}, {"variant": "G1562A", "effect of a mutation on the interaction": "decreasing interaction"}]}]}
